Measurements published in patent US20040228866A1, “Suppressor genes” (Ludwig Institute for Cancer Research, priority 2000, published 2004).

T1: p73α (Homo sapiens, UniProt O15350)
T1 construct: expressed in transfected cells; host or cells: H1299 and Saos-2; part of the results from in vitro translation
T1 sequence (O15350 1-636): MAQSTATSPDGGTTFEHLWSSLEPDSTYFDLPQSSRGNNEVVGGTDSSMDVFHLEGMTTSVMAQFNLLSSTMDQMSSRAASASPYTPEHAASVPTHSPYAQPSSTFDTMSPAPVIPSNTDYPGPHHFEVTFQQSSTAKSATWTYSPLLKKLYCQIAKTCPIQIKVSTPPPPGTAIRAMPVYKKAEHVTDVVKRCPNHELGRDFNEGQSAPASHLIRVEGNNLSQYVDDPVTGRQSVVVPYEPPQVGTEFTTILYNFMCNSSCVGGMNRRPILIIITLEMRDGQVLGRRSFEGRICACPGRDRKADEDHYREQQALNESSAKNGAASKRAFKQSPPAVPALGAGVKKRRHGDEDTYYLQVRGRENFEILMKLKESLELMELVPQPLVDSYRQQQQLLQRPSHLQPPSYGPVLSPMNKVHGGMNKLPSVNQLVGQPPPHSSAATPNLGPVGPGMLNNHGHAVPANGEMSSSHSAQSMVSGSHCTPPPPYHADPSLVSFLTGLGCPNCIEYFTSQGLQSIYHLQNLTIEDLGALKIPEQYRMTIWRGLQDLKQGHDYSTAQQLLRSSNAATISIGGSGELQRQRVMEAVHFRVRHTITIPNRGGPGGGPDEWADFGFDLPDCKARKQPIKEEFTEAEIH

B1: ASPP2: full length 1128 amino acid protein, SEQ ID NO: 4 (protein, listed as Homo sapiens)
chain: MMPMFLTVYLSNNEQHFTEVPVTPETICRDVVDLCKEPGESDCHLAEVWCGSERPVADNERMFDVLQRFGSQRNEVRFFLRHERPPGRDIVSGPRSQDPSLKRNGVKVPGEYRRKENGVNSPRMDLTLAELQEMASRQQQQIEAQQQLLATKEQRLKFLKQQDQRQQQQVAEQEKLKRLKEIAENQEAKLKKVRALKGHVEQKRLSNGKLVEEIEQMNNLFQQKQRELVLAVSKVEELTRQLEMLKNGRIDSHHDNQSAVAELDRLYKELQLRNKLNQEQNAKLQQQRECLNKRNSEVAVMDKRVNELRDRLWKKKAALQQKENLPVSSDGNLPQQAASAPSRVAAVGPYIQSSTMPRMPSRPELLVKPALPDGSLVIQASEGPMKIQTLPNMRSGAASQTKGSKIHPVGPDWSPSNADLFPSQGSASVPQSTGNALDQVDDGEVPLREKEKKVRPFSMFDAVDQSNAPPSFGTLRKNQSSEDILRDAQVANKNVAKVPPPVPTKPKQINLPYFGQTNQPPSDIKPDGSSQQLSTVVPSMGTKPKPAGQQPRVLLSPSIPSVGQDQTLSPGSKQESPPAAAVRPFTPQPSKDTLLPPFRKPQTVAASSIYSMYTQQQAPGKNFQQAVQSALTKTHTRGPHFSSVYGKPVIAAAQNQQQHPENIYSNSQGKPGSPEPETEPVSSVQENHENERIPRPLSPTKLLPFLSNPYRNQSDADLEALRKKLSNAPRPLKKRSSITEPEGPNGPNIQKLLYQRTTIAAMETISVPSYPSKSASVTASSESPVEIQNPYLHVEPEKEVVSLVPESLSPEDVGNASTENSDMPAPSPGLDYEPEGVPDNSPNLQNNPEEPNPEAPHVLDVYLEEYPPYPPPPYPSGEPEGPGEDSVSMRPPEITGQVSLPPGKRTNLRKTGSERIAHGMRVKFNPLALLLDSSLEGEFDLVQRIIYEVDDPSLPNDEGITALHNAVCAGHTEIVKFLVQFGVNVNAADSDGWTPLHCAASCNNVQVCKFLVESGAAVFAMTYSDMQTAADKCEEMEEGYTQCSQFLYGVQEKMGIMNKGVIYALWDYEPQNDDELPMKEGDCMTIIHREDEDEIEWWWARLNDKEGYVPRNLLGLYPRIKPRQRSLA
B2: ASPP1: Apoptosis Stimulating Protein 1, protein of SEQ ID NO: 2, expressed from a transfected plasmid (protein, listed as Homo sapiens)
chain: MMPMILTVFLSNNEQILTEVPITPETTCRDVVEFCKEPGEGSCHLAEVWRGNERPIPFDHMMYEHLQIWGPRREEVKFFLRHEDSPTENSEQGGRQTQEQRTQRNVINVPGDKRTEYGVGNPRVELTLSELQDMAARQQQQIENQQQMLVAKEQRLHFLKQQERRQQQSISENEKLQKLKERVEAQENKLKKIRAMRGQVDYSKIMNGNLSAEIERFSAMFQEKKQEVQTAILRVDQLSQQLEDLKKGKLNGFQSYNGKLTGPAAVELKRLYQELQIRNQLNQEQNSKLQQQKELLNKRNMEVAMMDKRISELRERLYGKKIQLNRVNGTSSPQSPLSTSGRVAAVGPYIQVPSAGSFPVLGDPIKPQSLSIASNAAHGRSKSANDGNWPTLKQNSSSSVKPVQVAGADWKDPSVEGSVKQGTVSSQPVPFSALGPTEKPGIEIGKVPPPIPGVGKQLPPSYGTYPSPTPLGPGSTSSLERRKEGSLPRPSAGLPSRQRPTLLPATGSTPQPGSSQQIQQRISVPPSPTYPPAGPPAFPAGDSKPELPLTVAIRPFLADKGSRPQSPRKGPQTVNSSSIYSMYLQQATPPKNYQPAAHSALNKSVKAVYGKPVLPSGSTSPSPLPFLHGSLSTGTPQPQPPSESTEKEPEQDGPAAPADGSTVESLPRPLSPTKLTPIVHSPLRYQSDADLEALRRKLANAPRPLKKRSSITEPEGPGGPNIQKLLYQRFNTLAGGMEGTPFYQPSPSQDFMGTLADVDNGNTNANGNLEELPPAQPTAPLPAEPAPSSDANDNELPSPEPEELICPQTTHQTAEPAEDNNNNVATVPTTEQIPSPVAEAPSPGEEQVPPAPLPPASHPPATSTNKRTNLKKPNSERTGHGLRVRFNPLALLLDASLEGEFDLVQRIIYEVEDPSKPNDEGITPLHNAVCAGHHHIVKFLLDFGVNVNAADSDGWTPLHCAASCNSVHLCKQLVESGAAIFASTISDIETAADKCEEMEEGYIQCSQFLYGVQEKLGVMNKGVAYALWDYEAQNSDELSFHEGDALTILRRKDESETEWWWARLGDREGYVPKNLLGLYPRIKPRQRTLA

What was measured:
p53 [1] = target: T2, p53 (Homo sapiens, UniProt P04637); assay: Transient luciferase reporter assay of p53 transactivation function in Saos-2 cells; type: cell-based; conditions: for stimulation of the promoter activity of mdm2 and cyclin G: co-expression with p53; for promoter activity of PIG-3: transient transfection reporter assay
T2 construct: expressed in transfected cells
Description: (§1) The amount of luciferase expression was determined as previously described in Samuels-Lev et al. (Mol. Cell 8:781-94, 2001, herein incorporated by reference).
(§2) The amount of transactivation function was determined as described in Example 4.
(§3) To determine the amount of protein expression, Saos-2 cells (5×10^5) were plated 24 hours prior to transfection in 6 cm dishes. […] To determine the amount of gene activation, after transfection, the cells were lysed in Reporter Lysis Buffer 16-24 hours post-wash and assayed using the Luciferase Assay kit (Promega, Wis.). The fold activation of a particular reporter was determined by the activity of the transfected plasmid above the activity of vector alone.
(§4) The expression level of transfected proteins was detected using 40 μg of the respective lysates using the antibodies V5, DX.5410, DO1, 4A4 and p73. […] Results were derived from at least three independent experiments.

p53 [2] = target: T3, p53 (Homo sapiens, UniProt P04637, R181C); assay: as above; type: cell-based; conditions: Bax-luc, FIG. 6B
T3 construct: expressed in transfected cells
Description: as §1, §2, §3, §4

E2F1 = target: T4, E2F1 (Homo sapiens, UniProt Q01094); assay: Transient reporter assay of E2F1 transactivation function; type: cell-based; conditions: co-expression with E2F1, FIGS. 2C and 2D
T4 construct: expressed in transfected cells
T4 sequence (Q01094 whole entry, species assumed): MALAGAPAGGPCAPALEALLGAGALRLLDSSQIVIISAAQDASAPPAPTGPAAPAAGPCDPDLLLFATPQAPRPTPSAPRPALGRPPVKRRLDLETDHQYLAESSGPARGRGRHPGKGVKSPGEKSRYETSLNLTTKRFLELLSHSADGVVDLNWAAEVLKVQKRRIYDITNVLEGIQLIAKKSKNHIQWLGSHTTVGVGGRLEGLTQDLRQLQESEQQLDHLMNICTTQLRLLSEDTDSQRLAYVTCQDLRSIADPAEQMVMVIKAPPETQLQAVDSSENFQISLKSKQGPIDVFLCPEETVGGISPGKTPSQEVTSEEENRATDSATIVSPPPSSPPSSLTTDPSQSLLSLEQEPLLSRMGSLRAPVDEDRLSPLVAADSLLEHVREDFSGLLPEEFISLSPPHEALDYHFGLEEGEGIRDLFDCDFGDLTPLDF

U2OS and MCF7 cells = assay: Apoptosis by FACS in U2OS and MCF7 cells expressing wild-type p53, with or without cisplatin; type: cell-based, human; conditions: no cisplatin
Description: The transfected cells were gated, and the apoptotic cells identified by FACS as described in Example 6.
Before exposure to cisplatin (5 and 3 μg/ml respectively), U2OS and MCF7 cells were transfected with plasmids encoding HPV16 E6, iASPP, or 53BP2. Thirty hours later, cells were harvested and analysed as above.
Fragments from the 5′ ends of ASPP1, ASPP2 and iASPP cDNA were cloned into a mammalian expression vector in an antisense orientation and their ability to inhibit the protein synthesis determined in vitro. The antisense nucleic acid molecules were amplified by PCR on the respective plasmid clones using primers spanning the following nucleotide regions (relative to the initial ATG): −74 to 923; −253 to 839 and −37 to 536 for ASPP1, ASPP2 and iASPP respectively. The amplified segments were purified with the QIAquick PCR purification kit (QIAGEN) and ligated in the pcDNA3.1/V5-His TOPO vector (Invitrogen) according to the manufacturer's instructions.
U2OS and MCF-7 cells were transfected with the various expression plasmids prior to the treatment with cisplatin and analyzed using FACS as described above.
To determine the anti-apoptotic role of iASPP, both U2OS and MCF-7 cells were transfected with antisense iASPP and cells analyzed as described above. […] A small increase in apoptotic cells was consistently detected (FIG. 7D).

p53 [3] = target: T2, p53; assay: Co-immunoprecipitation with p53 in transfected Saos-2 cells; type: binding
Description: The cells were lysed in NP40 lysis buffer and 1000 μg of lysate immunoprecipitated with antibodies to iASPP bound to Protein G beads.

p73α = target: T1, p73α; assay: Co-immunoprecipitation with p73α (in vitro translated; transfected H1299 and Saos-2 cells); type: binding; conditions: for interaction with p73α in vitro: in vitro translated proteins, FIGS. 12B and 12C; for interaction with p73α in vivo: transfected cells, FIGS. 13B and 13D
Description: V5-tagged ASPP1 and ASPP2 proteins were in vitro translated with cold methionine using the TNT T7 Quick coupled Transcription/Translation System (Promega). Cell lysates were incubated at 30° C. for 1 hour and then immunoprecipitated with anti-V5 antibody on protein G agarose beads.
The agarose beads were added to the binding reactions and incubated on a rotating wheel at 4° C. for 16 hours. The beads were then washed with PBS. The bound proteins were released in SDS gel sample buffer and analysed by 10% SDS-polyacrylamide gel electrophoresis (PAGE). The gels were wet transferred on to Protran nitrocellulose membrane and the resulting blots were first incubated with primary antibody and subsequently with the appropriate secondary HRP conjugated antibody (Dako). The blot was exposed to hyperfilm following the use of ECL substrate solution (Amersham Life Science).
Cells were transfected with 1 μg of p63γ or p73α in the presence or absence of 10 μg of ASPP1 or ASPP2. Cell lysate (1 mg) was immunoprecipitated with an antiASPP1 or ASPP2 antibody (see Example 2 and 7). The immunoprecipitates were separated on an SDS gel and the presence of p63 or p73 on the immunoblots detected by mouse monoclonal antibodies 4A4 (Santa Cruz) and ER-15 (Neomarker) to p63 or p73, respectively. The presence of ASPP1 or ASPP2 was detected with antibodies YX.7 and DX5410, respectively.
In some methods, larger amounts of cell lysate (2 mg) were immunoprecipitated with rabbit antibodies ASPP1.88 or BP77 to ASPP1 and ASPP2, respectively. The expression of ASPP1, ASPP2, p63γ and p73α was detected as described above.

| Molecule | transactivation function of p53 on the mdm2 promoter (p53 [1]; FIG. 8C, Ikb even in the presence of ASPP2) | stimulation of the promoter activity of mdm2 and cyclin G (p53 [1]) | stimulation of the transactivation function of p53 on the Bax promoter (p53 [1]; co-expression with p53, FIG. 8B) | promoter activity of PIG-3 (p53 [1]) | stimulation of the transactivation function of p53 (p53 [1]; versions of ASPP2 co-expressed with p53, FIG. 3) | transactivation function of mutant p53 181C on the Bax gene promoter (p53 [2]) | transactivation function of E2F1 on cyclin A, b-myb and synthetic promoter 3×wt (E2F1) | apoptosis on expression in cells with endogenous wild-type p53 (U2OS and MCF7 cells) | interaction with p53 by immunoprecipitation and western blot (p53 [3]) | interaction with p73α in vitro (p73α) | interaction with p73α in vivo (p73α) | stimulation of the transactivation function of p53 on the Bax promoter (p53 [1]; Example 16, FIGS. 14A and 14B) |
| --- | --- | --- | --- | --- | --- | --- | --- | --- | --- | --- | --- | --- |
| B1 | very little effect | very modest stimulation | about 8 fold | specifically stimulated | about 7 fold | unable to stimulate | failed to stimulate | induced apoptosis | interact in vivo | co-immunoprecipitated | co-immunoprecipitated transfected p63γ and p73α | – |
| B2 | – | very modest stimulation | – | specifically stimulated | – | unable to stimulate | failed to stimulate | induced apoptosis | – | co-immunoprecipitated | co-immunoprecipitated transfected p63γ and p73α | around 6 fold |
